Measurements: patent publication US10538802B2, “Polypeptide substrate for the detection of von Williebrand factor cleaving protease ADAMTS13” (IMMUCOR GTI DIAGNOSTICS, INC., priority 2011, dated 2020)

Target: T1, ADAMTS13 (Homo sapiens, UniProt Q76LX8)
T1 construct: tissue Gen-Probe GTI Diagnostics (ATS-13 kit calibrators, controls and proficiency samples); George King Biomedical Inc. (FACT, A-FACT, B-FACT plasmas) ATS-13; host or cells: plasma
T1 sequence (Q76LX8 75-1427): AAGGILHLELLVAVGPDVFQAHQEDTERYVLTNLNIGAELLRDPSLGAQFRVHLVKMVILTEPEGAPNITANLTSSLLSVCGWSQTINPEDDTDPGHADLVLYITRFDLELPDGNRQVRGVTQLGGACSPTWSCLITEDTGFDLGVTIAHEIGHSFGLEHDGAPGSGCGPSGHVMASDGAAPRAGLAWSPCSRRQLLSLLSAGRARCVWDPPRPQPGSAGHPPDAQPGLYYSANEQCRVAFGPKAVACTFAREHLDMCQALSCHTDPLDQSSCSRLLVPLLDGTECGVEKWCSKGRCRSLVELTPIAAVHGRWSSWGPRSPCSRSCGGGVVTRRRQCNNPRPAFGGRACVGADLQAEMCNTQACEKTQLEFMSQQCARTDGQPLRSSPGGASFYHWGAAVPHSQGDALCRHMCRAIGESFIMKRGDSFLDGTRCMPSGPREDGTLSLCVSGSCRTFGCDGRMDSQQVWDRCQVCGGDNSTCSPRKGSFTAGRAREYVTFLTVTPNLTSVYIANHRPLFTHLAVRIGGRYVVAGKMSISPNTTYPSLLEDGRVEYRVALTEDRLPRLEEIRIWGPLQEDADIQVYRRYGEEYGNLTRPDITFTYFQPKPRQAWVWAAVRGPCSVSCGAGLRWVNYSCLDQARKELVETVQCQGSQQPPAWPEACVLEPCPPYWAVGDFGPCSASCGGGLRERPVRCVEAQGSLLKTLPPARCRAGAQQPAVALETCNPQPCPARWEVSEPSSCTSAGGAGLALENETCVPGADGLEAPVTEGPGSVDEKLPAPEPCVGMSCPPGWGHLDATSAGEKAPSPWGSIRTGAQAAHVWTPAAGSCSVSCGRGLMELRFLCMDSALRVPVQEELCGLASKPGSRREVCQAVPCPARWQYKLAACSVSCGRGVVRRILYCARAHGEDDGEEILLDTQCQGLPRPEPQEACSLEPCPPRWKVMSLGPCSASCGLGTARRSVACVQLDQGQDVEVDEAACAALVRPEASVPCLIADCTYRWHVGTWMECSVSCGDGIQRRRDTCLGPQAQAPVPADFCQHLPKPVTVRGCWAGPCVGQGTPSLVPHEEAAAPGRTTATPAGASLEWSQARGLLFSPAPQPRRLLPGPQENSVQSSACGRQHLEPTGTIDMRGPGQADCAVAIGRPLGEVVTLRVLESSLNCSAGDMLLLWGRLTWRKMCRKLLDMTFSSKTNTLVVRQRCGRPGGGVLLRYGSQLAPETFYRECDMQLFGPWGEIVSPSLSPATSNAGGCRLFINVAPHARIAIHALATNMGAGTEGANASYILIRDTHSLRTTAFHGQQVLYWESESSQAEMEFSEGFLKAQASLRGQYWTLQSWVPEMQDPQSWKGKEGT
Test: ADAMTS13 activity assay with fluorogenic (FRET) polypeptide substrate and diluted plasma samples
Format: biochemical
Details: for % Normal ADAMTS13 Activity: 30 Minute Incubation Time: Table 5
Description: The procedure in this example was performed substantially as described in Kokame, K., Y. Nobe, Y. Kokubo, A. Okayama, and T. Miyata. 2005. FRETS-VWF73, a first fluorogenic substrate for ADAMTS13 assay. Br. J. Haematol. 129:93-100, but using SEQ ID NO: 1 in place of the 73 amino acid substrate described therein. The FRETS-VWF73 substrate solution was dissolved in 25% dimethyl sulphoxide/water to prepare the 100 microM stock solution. The GTI FRET4 SEQ ID NO: 1 was dissolved in 100% DMSO. Both substrates were diluted to equal concentrations using ATS-13 substrate buffer (Gen-Probe GT1 Diagnostics, Inc., U.S.A., Cat#ATS-13).
Plasma samples were diluted according to the ATS-13 Direction Insert using ATS-13 specimen diluent (Gen-Probe GTI Diagnostics, Inc., U.S.A., Cat# ATS-13). The diluted plasma samples were mixed with the diluted substrate and the fluorescence was read at 0, 5, 10, 15, 20, 30, 45 minutes using a Biotek FLX800 at the appropriate excitation and emission wavelengths for each substrate.
The fluorophore-quencher pair in the SEQ ID NO: 1 polypeptide substrate is FAM-5/TQ 2^Tm (Ex 485±20; Em 528±20; AAT Bioquest, Inc. Sunnyvale, Calif. U.S.A.). The fluorophore and quencher pair of FRETS-VWF73 (Nma/Dnp) described in Kokame has been substituted with FAM-5 and TQ_2 respectively in GTI_FRET4 SEQ ID NO: 1. Furthermore, in the SEQ ID NO: 1 polypeptide the position of the fluorophore (FAM-5) and quencher (TQ_2) has been swapped relative to the position of the fluorophore and quencher of the FRETS-VWF73 construct. Therefore, for GTI_FRET4 SEQ ID NO: 1, attachment of the fluorophore (FAM-5) occurs by substituting asparagine with cystine at position 15. The quencher (TQ_2) was attached by substituting glutamine with lysine at position 4 (FIG. 2 and Table 4).
For this experiment, substrate concentration and fluorescence reader settings determined on the previous experiment are used. The specimens tested (listed in Table 3), include a panel of proficiency samples prepared for use with ATS-13 (Gen-Probe GTI Diagnostics, Inc., U.S.A., Cat# ATS-13) which included samples with normal or deficient ADAMTS13 activity levels. In addition, six Factor Assay ConTrol plasma were used (2 FACT, 2 A-FACT and 2 B-FACT, from George King Biomedical Inc., Kansas, USA). The assays for the SEQ ID NO: 1 substrate and for the prior art FRETS-VWF73 assay were performed generally as according to the procedure described in Example 1. Substrate is prepared according to the conditions used for initial testing of the substrate, which prepared the molar amount of SEQ ID NO: 1 polypeptide substrate used in the assay to be equivalent to the molar amount of FRETS-VWF73 used in the prior art. The […] assays were read at 0, 5, 10, 15, 20, 30, 45 minutes.
Testing of substrate for cleavability by ADAMTS13 is determined as is generally described in Example 1. […]

time through which the calibration curve continued to be linear: ≤ 45 min
trend line of the calibration curve: linear
time at which the calculated % N ADAMTS13 activity plateaus (Example 1): 30 min
difference between Calibrator A (0% ADAMTS13 activity) and Calibrator E (100% ADAMTS13 activity), dynamic range (Example 1, at 30 minutes): approximately 34,000 RFU
difference between Calibrator A and E, dynamic range (Example 2, at 30 minutes): approximately 35000 RFU
% Normal ADAMTS13 Activity: 30 Minute Incubation Time (sample 5 (ATS13-5)): 7 % Normal
% Normal ADAMTS13 Activity: 30 Minute Incubation Time (sample 22 (ATS13-4)): 21 % Normal
% Normal ADAMTS13 Activity: 30 Minute Incubation Time (sample 50 (ATS13-3)): 47 % Normal
% Normal ADAMTS13 Activity: 30 Minute Incubation Time (sample 72 (ATS13-2)): 72 % Normal
% Normal ADAMTS13 Activity: 30 Minute Incubation Time (sample 90 (ATS13-1)): 92 % Normal
% Normal ADAMTS13 Activity: 30 Minute Incubation Time (sample A-FACT lot 900): 10 % Normal
% Normal ADAMTS13 Activity: 30 Minute Incubation Time (sample A-FACT lot 1284): 10 % Normal
% Normal ADAMTS13 Activity: 30 Minute Incubation Time (sample B-FACT lot 1114): 45 % Normal
% Normal ADAMTS13 Activity: 30 Minute Incubation Time (sample B-FACT lot 1266): 46 % Normal
% Normal ADAMTS13 Activity: 30 Minute Incubation Time (sample BCM2): 19 % Normal
% Normal ADAMTS13 Activity: 30 Minute Incubation Time (sample BCM2 HI): 12 % Normal
% Normal ADAMTS13 Activity: 30 Minute Incubation Time (sample BCM2 mixed): 51 % Normal
% Normal ADAMTS13 Activity: 30 Minute Incubation Time (sample CNTL): <Calibrator A
% Normal ADAMTS13 Activity: 30 Minute Incubation Time (sample CNTL HI): <Calibrator A
% Normal ADAMTS13 Activity: 30 Minute Incubation Time (sample CNTL mixed): 4 % Normal
% Normal ADAMTS13 Activity: 30 Minute Incubation Time (sample Calibrator A): 4 % Normal
% Normal ADAMTS13 Activity: 30 Minute Incubation Time (sample Calibrator B): 9 % Normal
% Normal ADAMTS13 Activity: 30 Minute Incubation Time (sample Calibrator C): 29 % Normal
% Normal ADAMTS13 Activity: 30 Minute Incubation Time (sample Calibrator D): 61 % Normal
% Normal ADAMTS13 Activity: 30 Minute Incubation Time (sample Calibrator E): 110 % Normal
% Normal ADAMTS13 Activity: 30 Minute Incubation Time (sample FACT lot 222e1): 111 % Normal
% Normal ADAMTS13 Activity: 30 Minute Incubation Time (sample FACT lot 1223): 107 % Normal
% Normal ADAMTS13 Activity: 30 Minute Incubation Time (sample NPP032206): >Calibrator E
% Normal ADAMTS13 Activity: 30 Minute Incubation Time (sample NPP032206 HI): 9 % Normal
% Normal ADAMTS13 Activity: 30 Minute Incubation Time (sample NPP032206 at 37C): 106 % Normal
% Normal ADAMTS13 Activity: 30 Minute Incubation Time (sample NPP032206 mixed): 57 % Normal
% Normal ADAMTS13 Activity: 30 Minute Incubation Time (sample Positive Control High): 50 % Normal
% Normal ADAMTS13 Activity: 30 Minute Incubation Time (sample Positive Control Low): 14 % Normal
% Normal ADAMTS13 Activity: 30 Minute Incubation Time (sample UAMS041609): 31 % Normal
% Normal ADAMTS13 Activity: 30 Minute Incubation Time (sample VF040901): 10 % Normal
Increase in Fluorescence Values (X minute - 0 minute Reading) (sample Calibrator A, 15 min): 676 RFU
Increase in Fluorescence Values (X minute - 0 minute Reading) (sample Calibrator A, 30 min): 843 RFU
Increase in Fluorescence Values (X minute - 0 minute Reading) (sample Calibrator A, 45 min): 921 RFU
Increase in Fluorescence Values (X minute - 0 minute Reading) (sample Calibrator A, 60 min): 1,166 RFU
Increase in Fluorescence Values (X minute - 0 minute Reading) (sample Calibrator A, 75 min): 1,013 RFU
Increase in Fluorescence Values (X minute - 0 minute Reading) (sample Calibrator A, 90 min): 959 RFU
% Normal ADAMTS13 Values Calculated Using GTI_FRET4 Substrate (sample Calibrator A, incubation 15 Minutes): 1 % Normal
% Normal ADAMTS13 Values Calculated Using GTI_FRET4 Substrate (sample Calibrator A, incubation 30 Minutes): 1 % Normal
% Normal ADAMTS13 Values Calculated Using GTI_FRET4 Substrate (sample Calibrator A, incubation 45 Minutes): 0 % Normal
% Normal ADAMTS13 Values Calculated Using GTI_FRET4 Substrate (sample Calibrator A, incubation 60 Minutes): 0 % Normal
% Normal ADAMTS13 Values Calculated Using GTI_FRET4 Substrate (sample Calibrator A, incubation 75 Minutes): 0 % Normal
% Normal ADAMTS13 Values Calculated Using GTI_FRET4 Substrate (sample Calibrator A, incubation 90 Minutes): 0 % Normal
Increase in Fluorescence Values (X minute - 0 minute Reading) (sample Calibrator B, 15 min): 1,765 RFU
Increase in Fluorescence Values (X minute - 0 minute Reading) (sample Calibrator B, 30 min): 3,000 RFU
Increase in Fluorescence Values (X minute - 0 minute Reading) (sample Calibrator B, 45 min): 4,164 RFU
Increase in Fluorescence Values (X minute - 0 minute Reading) (sample Calibrator B, 60 min): 5,358 RFU
Increase in Fluorescence Values (X minute - 0 minute Reading) (sample Calibrator B, 75 min): 6,468 RFU
Increase in Fluorescence Values (X minute - 0 minute Reading) (sample Calibrator B, 90 min): 7,581 RFU
% Normal ADAMTS13 Values Calculated Using GTI_FRET4 Substrate (sample Calibrator B, incubation 15 Minutes): 7 % Normal
% Normal ADAMTS13 Values Calculated Using GTI_FRET4 Substrate (sample Calibrator B, incubation 30 Minutes): 7 % Normal
% Normal ADAMTS13 Values Calculated Using GTI_FRET4 Substrate (sample Calibrator B, incubation 45 Minutes): 7 % Normal
% Normal ADAMTS13 Values Calculated Using GTI_FRET4 Substrate (sample Calibrator B, incubation 60 Minutes): 7 % Normal
% Normal ADAMTS13 Values Calculated Using GTI_FRET4 Substrate (sample Calibrator B, incubation 75 Minutes): 6 % Normal
% Normal ADAMTS13 Values Calculated Using GTI_FRET4 Substrate (sample Calibrator B, incubation 90 Minutes): 6 % Normal
Increase in Fluorescence Values (X minute - 0 minute Reading) (sample Calibrator C, 15 min): 6,178 RFU
Increase in Fluorescence Values (X minute - 0 minute Reading) (sample Calibrator C, 30 min): 11,701 RFU
Increase in Fluorescence Values (X minute - 0 minute Reading) (sample Calibrator C, 45 min): 16,807 RFU
Increase in Fluorescence Values (X minute - 0 minute Reading) (sample Calibrator C, 60 min): 21,705 RFU
Increase in Fluorescence Values (X minute - 0 minute Reading) (sample Calibrator C, 75 min): 26,685 RFU
Increase in Fluorescence Values (X minute - 0 minute Reading) (sample Calibrator C, 90 min): 32,209 RFU
% Normal ADAMTS13 Values Calculated Using GTI_FRET4 Substrate (sample Calibrator C, incubation 15 Minutes): 32 % Normal
% Normal ADAMTS13 Values Calculated Using GTI_FRET4 Substrate (sample Calibrator C, incubation 30 Minutes): 33 % Normal
% Normal ADAMTS13 Values Calculated Using GTI_FRET4 Substrate (sample Calibrator C, incubation 45 Minutes): 33 % Normal
% Normal ADAMTS13 Values Calculated Using GTI_FRET4 Substrate (sample Calibrator C, incubation 60 Minutes): 34 % Normal
% Normal ADAMTS13 Values Calculated Using GTI_FRET4 Substrate (sample Calibrator C, incubation 75 Minutes): 35 % Normal
% Normal ADAMTS13 Values Calculated Using GTI_FRET4 Substrate (sample Calibrator C, incubation 90 Minutes): 36 % Normal
Increase in Fluorescence Values (X minute - 0 minute Reading) (sample Calibrator D, 15 min): 10,887 RFU
Increase in Fluorescence Values (X minute - 0 minute Reading) (sample Calibrator D, 30 min): 20,626 RFU
Increase in Fluorescence Values (X minute - 0 minute Reading) (sample Calibrator D, 45 min): 29,206 RFU
Increase in Fluorescence Values (X minute - 0 minute Reading) (sample Calibrator D, 60 min): 37,289 RFU
Increase in Fluorescence Values (X minute - 0 minute Reading) (sample Calibrator D, 75 min): 44,543 RFU
Increase in Fluorescence Values (X minute - 0 minute Reading) (sample Calibrator D, 90 min): 53,613 RFU
Sequence: DREKAPNLVYMVTGCPASDEIKRLPGDIQVVPIEVIGWPNAPILIQDEETLPREAPDLVLQR [GTI_FRET4]
